Like-named read-outs stand apart in the source and are kept apart here. Numbered stars: 1 amine (or outer) side, 2 acyl side, 3 side chain; on linkers, the order of the positions; unused ones are H or OH. Bridge positions count the residues as written; N and C are the ends. Square brackets hold non-standard residues; d marks the D form. Peptide text beside a SMILES is read from it. * marks the point of attachment. X1 = COc1cc2cc(c1Cl)N(C)C(=O)C[C@H](OC(=O)[C@H](C)N(C)C(=O)CCSSC(C)CCC(=O)*)[C@]1(C)O[C@H]1[C@H](C)[C@@H]1C[C@@](O)(NC(=O)O1)[C@H](OC)/C=C/C=C(\C)C2; 1Nal = N[C@@H](Cc1cccc2ccccc12)C(=O)O; TBMB = c1c(C[*:1])cc(C[*:3])cc1C[*:2]; Tle = CC(C)(C)[C@H](N)C(=O)O; βAla = NCCC(=O)O; Sar = CNCC(=O)O
Legend:
[1] = biological target: hemopexin domain of MT1-MMP (Homo sapiens, UniProt P50281); assay: Binding to hemopexin domain of MT1-MMP
Experimental: Bicycle drug conjugates (BDCs) with a variety of linkers and cytotoxic payloads were prepared which retained binding to MT1.
BT1718 is a BDC that binds to MT1-MMP and upon cleavage of its disulphide linker, releases the cytotoxic tubulin inhibitor, DM1 (also referred to as DM1-SH).

[2] = Stability in plasma in vitro, human; type: in vitro ADME; conditions: 37° C.
Experimental: (§1) The stability of BT1718 was assessed in plasma and whole blood from humans, monkey, dog, mouse and rat. […] The mechanism for the difference in stability of the BT1718 peptide in whole blood between the different species is unknown.

[3] = Stability in plasma in vitro, rat; type: in vitro ADME; conditions: 37° C.
Experimental: as §1

[4] = Stability in whole blood in vitro, rat; type: in vitro ADME; conditions: 37° C.
Experimental: as §1

[5] = Plasma protein binding, human; type: in vitro ADME
Experimental: Plasma protein binding of BT1718 was also assessed. The mean plasma protein binding of the BT1718 peptide ranged from 87% to 98%, with the free fraction of BT1718 being 13% in human, 2.6% in rats, 7.5% in mice, 3.8% in monkey and 1.5% in dog plasma, the results had no correlation to the plasma and whole blood stability data. […] Plasma protein binding of unconjugated DM1, has previously been reported, with the unbound fraction being 7% in human and monkey and 3% in rat.

[6] = Crl:WI(Han) rat non-GLP tox study toxicokinetics; type: in vivo, Crl: WI(Han) rats; conditions: male, plasma, iv
[7] = Wistar Han rat GLP study toxicokinetics; type: in vivo; conditions: plasma, Day 1 male; for Cmax: read-out: C0/Cmax
Source text: In a repeat dose experiment with BT1718 no significant gender-related differences in the TK parameters for the rat or monkey were noted. Exposure in both the rat and monkey increased approximately linearly with dose and was maintained for 28 days on repeat dosing. […] Plasma clearance and volume of distribution were similar across BT1718 dose and consistent with the PK studies.

[8] = Total DM1 in plasma and urine / excretion (preclinical); type: in vivo
Experimental: Efficacy in this model was reduced in the conjugates containing the least cleavable linkers. […] Effective treatment was also seen with same total dose, given at on schedules from daily to a single weekly dose.
The concentration of total DM1 in plasma and urine was also measured following a reduction step, to detect DM1 in BT1718, any peptidyl-DM1 metabolites of BT1718, other DM1-containing mixed disulfides and free DM1. The level of total DM1 in plasma and urine increased with increasing dose, with about 85% of the total DM1 recovered in urine within 48 hours of BT1718 administration. […] An assay for free DM1 has not been successfully developed due to the instability of the free thiol in biological matrices.

[9] = tested on: advanced solid tumors; assay: Phase I/IIa trial of BT1718 in patients with advanced solid tumors: safety and efficacy; type: in vivo
Source text: This is a multi-center, FIH, Phase I/IIa, open label dose escalation trial with an expansion phase, in patients with advanced solid tumors.
A DLT is defined as a probably or highly probably drug-related AE occurring during Cycle 1 (i.e. the first 28 days) which fulfils one or more of the following criteria, despite appropriate supportive clinical management (however, all clinically significant toxicities will be considered in dose review decisions and the determination of the Phase II dose): • Neutropenia Grade 4 (absolute neutrophil count [ANC]<0.5×10^9/L) for ≥seven days *see note; • Febrile neutropenia with Grade 3 or 4 neutropenia ANC <1.0×10^9/L and a single temperature of […] or a sustained temperature ≥38° C. for more than one hour); • Clinically significant infection (documented clinically or microbiologically) with Grade 3 or 4 neutropenia (ANC <1.0×10^9/L); • Thrombocytopenia Grade 4: a) for ≥five days *see note, or b) associated with active bleeding, or c) requiring platelet transfusion. • Grade 3 or 4 toxicity to organs other than the bone marrow, EXCLUDING: Grade 3 nausea; • Grade 3 or 4 vomiting in patients who have not received optimal treatment with anti-emetics; or • Grade 3 or 4 diarrhoea in patients who have not received optimal treatment with anti-diarrhoeals. • Transient, asymptomatic Grade 3 biochemical abnormalities if agreed by the Sponsor and the Study Team, including the Chief Investigator (CI). • Fatal event; • Any other related toxicity which leads to discontinuation of treatment in Cycle 1, or to a delay in dosing of >7 days (excluding where the delay is >7 days due to scheduling rather than a clinical decision); • Any other related toxicity that is greater than at baseline and is judged to be a DLT by the Sponsor, including the CI and Principal Investigators (PIs).
Definitions of disease status is in accordance with RECIST (Response Evaluation Criteria in Solid Tumors) 1.1, based on documentation of target and non-target lesions as specified in the BT1718 study protocol. All clinical measurements to assess response must be performed within one week of the first dose of BT1718.
An open label, first in human phase Ulla study of once-weekly (QW) and twice-weekly (BIW) dosing schedules in patients with advanced solid tumours was undertaken.
4-week cycle: 1 hour intravenous (IV) infusions for 3 weeks, followed by a 1 week break.

[10] = Preclinical PK and toxicokinetics, summary across studies; parameters: species or system mice and rats; conditions: mouse and rat, in vivo, intravenous, read-out: half-life estimate
Source text: BT1718 has low molecular weight (3.5 kDA) in comparison to other conjugated toxin approaches, which enables rapid penetration of tumor tissue. […] Hypothesized advantages over ADCs therefore include reduced systemic exposure of normal tissues to circulating BT1718, the ability to manage toxicity during recovery periods, as well as the improved tumor penetrance. Other potential advantages include a fixed peptide:conjugate ratio of 1:1 (c.f. ADCs where variable conjugation results in mixed populations) and with more scalable manufacturing as a small molecule (c.f. biologics such as ADCs).

[11] = 1.2 mg/m2, Wister Han rats GLP, 1.2 mg/m^2 IV
[12] = 3 mg/m2, Wister Han rats GLP, 3 mg/m^2 IV
[13] = 6 mg/m2, Wister Han rats GLP, 6 mg/m^2 IV

COc1cc2cc(c1Cl)N(C)C(=O)C[C@H](OC(=O)[C@H](C)N(C)C(=O)CCSSC(C)CCC(=O)NCCC(=O)N(C)CC(=O)N(C)CC(=O)N(C)CC(=O)N(C)CC(=O)N(C)CC(=O)N(C)CC(=O)N(C)CC(=O)N(C)CC(=O)N(C)CC(=O)N(C)CC(=O)N[C@@H](C)C(=O)N[C@H]1CSCc3cc4cc(c3)CSC[C@H](NC(=O)[C@@H](C)NC(=O)[C@H](Cc3cccc5ccccc35)NC(=O)[C@H](CCC(=O)O)NC(=O)[C@H](CC(N)=O)NC(=O)[C@@H](C)NC1=O)C(=O)N[C@@H](CCC(=O)O)C(=O)N[C@@H](CC(=O)O)C(=O)N[C@@H](Cc1ccccc1)C(=O)N[C@@H](Cc1ccc(O)cc1)C(=O)N[C@@H](CC(=O)O)C(=O)N[C@@H](C(C)(C)C)C(=O)N[C@H](C(N)=O)CSC4)[C@]1(C)O[C@H]1[C@H](C)[C@@H]1C[C@@](O)(NC(=O)O1)[C@H](OC)/C=C/C=C(\C)C2 (stereo partly shown) [BT1718] ({X1-βAla}-[Sar][Sar][Sar][Sar][Sar][Sar][Sar][Sar][Sar][Sar]AC[dA]NE[1Nal][dA]CEDFYD[Tle]C-NH2; linker 12-18-25 via TBMB (inferred)) showed a Ki [1] of 1.75 ± 0.92 nM, a half-life [2] of over 6 h and a half-life [3] of over 6 h. For the same molecule, the half-life [4] was over 24 h, the fraction unbound ([5]; human plasma, read-out: free fraction) was 0.13 and the fraction unbound ([5]; range across human, rat, mouse, monkey and dog plasma, read-out: mean plasma protein binding) was 0.02 to 0.13. For the same molecule, the Cmax ([6]; 1.2 mg/m2, read-out: C0/Cmax) was 100 ± 10 nM, the Cmax ([6]; 6 mg/m2, read-out: C0/Cmax) was 400 ± 140 nM and the AUC [7, 11] was 0.09 µM·h. It also gave a Cmax [7, 11] of 80 nM, an AUC [7, 12] of 0.46 µM·h and a Cmax [7, 12] of 590 nM. For the same molecule, the AUC [7, 13] was 0.85 µM·h, the Cmax [7, 13] was 1020 nM and the route of excretion ([8]; preliminary metabolism studies) was “excreted mainly through the kidney in urine”. For the same molecule, the “total DM1 recovered in urine” value ([8]; within 48 hours of BT1718 administration) was “about 85%”, the DLTs ([9]; 9.6 mg/m^2 BIW (cohort 5)) was 2×DLTs (GGT, fatigue) and increased GGT (grade 4) and fatigue (grade 3) and the “Drug-related Alanine aminotransferase increased, number of patients, n = 28 (frequency)” value ([9]; human, in vivo) was 8 (28.6%). The “Drug-related Anaemia, number of patients, n = 28 (frequency)” value ([9]; human, in vivo) was 7 (25.0%), the “Drug-related Aspartate aminotransferase increased, number of patients, n = 28 (frequency)” value ([9]; human, in vivo) was 9 (32.1%) and the “Drug-related Blood alkaline phosphatase increased, number of patients, n = 28 (frequency)” value ([9]; human, in vivo) was 5 (17.9%). The “Drug-related Decreased appetite, number of patients, n = 28 (frequency)” value ([9]; human, in vivo) was 9 (32.1%), the “Drug-related Diarrhea, number of patients, n = 28 (frequency)” value ([9]; human, in vivo) was 10 (35.7%) and the “Drug-related Fatigue, number of patients, n = 28 (frequency)” value ([9]; human, in vivo) was 9 (32.1%). The “Drug-related Gamma-glutamyltransferase increased, number of patients, n = 28 (frequency)” value ([9]; human, in vivo) was 5 (17.9%), the “Drug-related Lethargy, number of patients, n = 28 (frequency)” value ([9]; human, in vivo) was 6 (21.4%) and the “Drug-related Nausea, number of patients, n = 28 (frequency)” value ([9]; human, in vivo) was 12 (42.9%). The “Drug-related Neuropathy peripheral, number of patients, n = 28 (frequency)” value ([9]; human, in vivo) was 9 (32.1%), the “Drug-related Vomiting, number of patients, n = 28 (frequency)” value ([9]; human, in vivo) was 9 (32.1%) and the “Grade 1-2 related peripheral neuropathy” value ([9]; human, in vivo) was “occurred more commonly with increasing dose”. For the same molecule, the “RP2D for twice weekly dosing” value ([9]; human, in vivo) was 7.2 mg/m^2, the “patients with related grade 1-3 gastrointestinal disorders” value ([9]; including nausea, diarrhea and vomiting) was 18/28 and the tolerability ([9]; once weekly dosing, dose levels tested) was “tolerable”. It also gave a half-life [10] of 0.25 to 0.5 h.
